According to PMC10387098:
Like-named read-outs stand apart in the source and are kept apart here.

Legend:
[1] = biological target: CRAF RBD-CRD-C2 (Homo sapiens) (UniProt P04049); conditions: cited from earlier work
CRAF RBD (Homo sapiens) = CRAF RBD (Homo sapiens) (UniProt P04049); conditions: cited from earlier work
[2] = biological target: CRAF RBD-CRD (Homo sapiens) (UniProt P04049); conditions: cited from earlier work
[3] = biological target: CRAF RBD-CRD (Homo sapiens) (UniProt P04049); assay: SPR; conditions: cited from earlier work
[4] = biological target: KRAS4b residues 1–169 with N-terminal cysteine, Alexa Fluor 647-labeled, GMP-PNP-bound (UniProt P01116); assay: MST; 10 μL of 5 nM Alexa Fluor 647-labeled GMP-PNP-bound KRAS mixed with 10 μL of serially diluted BRAF proteins (10 pM to 1 μM); 0.05% Tween-20; Monolith NT.115pico; three independent dilution series averaged

Kd [4] [nM] | Substance | Kd [1] [nM] | Kd (CRAF RBD (Homo sapiens)) [nM] | Kd [2] [nM] | Kd [3] [nM]
 | KRAS (from UniProt P01116) | 188 | 21.2 | 190 | 188
127 | BRAF/MEK/14-3-3 (autoinhibited), as used for MST (from UniProt P15056 1-766; Q02750 1-393) (complex) |  |  |  | 
106 | BRAF/14-3-3 (full length, active dimer) (from UniProt P15056 1-766) (complex) |  |  |  | 
